Test results: the Human Domainome abundance scans (Beltran et al. 2025)
± gives the uncertainty stated by the source.

B1: PDZ and LIM domain protein 2, residues 284 to 339; numbered along this chain, Q96JY6 (parent)
chain: HTCEKCSTSIANQAVRIQEGRYRHPGCYTCADCGLNLKMRGHFWVGDELYCEKHAR

Variants of: B1
Assay: abundance fitness (aPCA) (normalised: wild type 0, dead -1); higher = more abundant; growth selection in yeast, the domain comes from the species named
Settings: Homo sapiens
HTCEKCSTMIANQAVRIQEGRYRHPGCYTCADCGLNLKMRGHFWVGDELYCEKHAR [S9M] gave an abundance fitness of -0.62 ± 0.11.
HTCEKCSTHIANQAVRIQEGRYRHPGCYTCADCGLNLKMRGHFWVGDELYCEKHAR [S9H] gave an abundance fitness of -0.539 ± 0.18.
With HTCEKCSTQIANQAVRIQEGRYRHPGCYTCADCGLNLKMRGHFWVGDELYCEKHAR [S9Q] the abundance fitness was -0.079 ± 0.12.
In the case of HTCEKCSTCIANQAVRIQEGRYRHPGCYTCADCGLNLKMRGHFWVGDELYCEKHAR [S9C], the abundance fitness is reported as -0.365 ± 0.073.
HTCEKCSTAIANQAVRIQEGRYRHPGCYTCADCGLNLKMRGHFWVGDELYCEKHAR [S9A] showed an abundance fitness of 0.199 ± 0.08.
For HTCEKCSTNIANQAVRIQEGRYRHPGCYTCADCGLNLKMRGHFWVGDELYCEKHAR [S9N], the abundance fitness was -0.058 ± 0.12.
Variant HTCEKCSTPIANQAVRIQEGRYRHPGCYTCADCGLNLKMRGHFWVGDELYCEKHAR [S9P] has an abundance fitness of -0.376 ± 0.12.
HTCEKCSTTIANQAVRIQEGRYRHPGCYTCADCGLNLKMRGHFWVGDELYCEKHAR [S9T] gave an abundance fitness of -0.271 ± 0.085.
HTCEKCSTGIANQAVRIQEGRYRHPGCYTCADCGLNLKMRGHFWVGDELYCEKHAR [S9G] gave an abundance fitness of -0.08 ± 0.065.
Variant HTCEKCSTRIANQAVRIQEGRYRHPGCYTCADCGLNLKMRGHFWVGDELYCEKHAR [S9R] has an abundance fitness of -0.34 ± 0.083.
HTCEKCSTFIANQAVRIQEGRYRHPGCYTCADCGLNLKMRGHFWVGDELYCEKHAR [S9F] gave an abundance fitness of -1.09 ± 0.28.
With HTCEKCSTVIANQAVRIQEGRYRHPGCYTCADCGLNLKMRGHFWVGDELYCEKHAR [S9V] the abundance fitness was -0.485 ± 0.08.
Work on HTCEKCSTWIANQAVRIQEGRYRHPGCYTCADCGLNLKMRGHFWVGDELYCEKHAR [S9W] yielded an abundance fitness of -1.01 ± 0.14.
Variant HTCEKCSTYIANQAVRIQEGRYRHPGCYTCADCGLNLKMRGHFWVGDELYCEKHAR [S9Y] has an abundance fitness of -1.02 ± 0.31.
Variant HTCEKCSTLIANQAVRIQEGRYRHPGCYTCADCGLNLKMRGHFWVGDELYCEKHAR [S9L] has an abundance fitness of -0.767 ± 0.12.
Work on HTCEKCSTIIANQAVRIQEGRYRHPGCYTCADCGLNLKMRGHFWVGDELYCEKHAR [S9I] yielded an abundance fitness of -0.764 ± 0.34.
In the case of HTCEKCSTDIANQAVRIQEGRYRHPGCYTCADCGLNLKMRGHFWVGDELYCEKHAR [S9D], the abundance fitness is reported as 0.277 ± 0.13.
Work on HTCEKCATSIANQAVRIQEGRYRHPGCYTCADCGLNLKMRGHFWVGDELYCEKHAR [S7A] yielded an abundance fitness of 0.085 ± 0.079.
For HTCEKCMTSIANQAVRIQEGRYRHPGCYTCADCGLNLKMRGHFWVGDELYCEKHAR [S7M], the abundance fitness was -0.083 ± 0.14.
HTCEKCFTSIANQAVRIQEGRYRHPGCYTCADCGLNLKMRGHFWVGDELYCEKHAR [S7F] showed an abundance fitness of -0.137 ± 0.073.
HTCEKCCTSIANQAVRIQEGRYRHPGCYTCADCGLNLKMRGHFWVGDELYCEKHAR [S7C] gave an abundance fitness of 0.023 ± 0.095.
HTCEKCYTSIANQAVRIQEGRYRHPGCYTCADCGLNLKMRGHFWVGDELYCEKHAR [S7Y] gave an abundance fitness of -0.614 ± 0.2.
Work on HTCEKCHTSIANQAVRIQEGRYRHPGCYTCADCGLNLKMRGHFWVGDELYCEKHAR [S7H] yielded an abundance fitness of -0.212 ± 0.11.
HTCEKCPTSIANQAVRIQEGRYRHPGCYTCADCGLNLKMRGHFWVGDELYCEKHAR [S7P] gave an abundance fitness of -0.613 ± 0.2.
For HTCEKCETSIANQAVRIQEGRYRHPGCYTCADCGLNLKMRGHFWVGDELYCEKHAR [S7E], the abundance fitness was -0.878 ± 0.26.
Variant HTCEKCDTSIANQAVRIQEGRYRHPGCYTCADCGLNLKMRGHFWVGDELYCEKHAR [S7D] has an abundance fitness of -0.55 ± 0.11.
For HTCEKCVTSIANQAVRIQEGRYRHPGCYTCADCGLNLKMRGHFWVGDELYCEKHAR [S7V], the abundance fitness was -0.16 ± 0.095.
HTCEKCRTSIANQAVRIQEGRYRHPGCYTCADCGLNLKMRGHFWVGDELYCEKHAR [S7R] gave an abundance fitness of -0.216 ± 0.075.
Variant HTCEKCTTSIANQAVRIQEGRYRHPGCYTCADCGLNLKMRGHFWVGDELYCEKHAR [S7T] has an abundance fitness of 0.008 ± 0.076.
With HTCEKCITSIANQAVRIQEGRYRHPGCYTCADCGLNLKMRGHFWVGDELYCEKHAR [S7I] the abundance fitness was -0.047 ± 0.14.
HTCEKCLTSIANQAVRIQEGRYRHPGCYTCADCGLNLKMRGHFWVGDELYCEKHAR [S7L] showed an abundance fitness of -0.09 ± 0.06.
HTCEKCGTSIANQAVRIQEGRYRHPGCYTCADCGLNLKMRGHFWVGDELYCEKHAR [S7G] gave an abundance fitness of 0.018 ± 0.056.
HTCEKCNTSIANQAVRIQEGRYRHPGCYTCADCGLNLKMRGHFWVGDELYCEKHAR [S7N] gave an abundance fitness of -0.294 ± 0.18.
For HTCEKCWTSIANQAVRIQEGRYRHPGCYTCADCGLNLKMRGHFWVGDELYCEKHAR [S7W], the abundance fitness was -0.641 ± 0.1.
With HTCEKCSYSIANQAVRIQEGRYRHPGCYTCADCGLNLKMRGHFWVGDELYCEKHAR [T8Y] the abundance fitness was 0.119 ± 0.13.
Work on HTCEKCSKSIANQAVRIQEGRYRHPGCYTCADCGLNLKMRGHFWVGDELYCEKHAR [T8K] yielded an abundance fitness of 0.255 ± 0.066.
For HTCEKCSASIANQAVRIQEGRYRHPGCYTCADCGLNLKMRGHFWVGDELYCEKHAR [T8A], the abundance fitness was 0.308 ± 0.06.
For HTCEKCSVSIANQAVRIQEGRYRHPGCYTCADCGLNLKMRGHFWVGDELYCEKHAR [T8V], the abundance fitness was 0.189 ± 0.072.
Variant HTCEKCSHSIANQAVRIQEGRYRHPGCYTCADCGLNLKMRGHFWVGDELYCEKHAR [T8H] has an abundance fitness of 0.173 ± 0.095.
HTCEKCSGSIANQAVRIQEGRYRHPGCYTCADCGLNLKMRGHFWVGDELYCEKHAR [T8G] gave an abundance fitness of 0.153 ± 0.064.
In the case of HTCEKCSLSIANQAVRIQEGRYRHPGCYTCADCGLNLKMRGHFWVGDELYCEKHAR [T8L], the abundance fitness is reported as 0.004 ± 0.063.
In the case of HTCEKCSESIANQAVRIQEGRYRHPGCYTCADCGLNLKMRGHFWVGDELYCEKHAR [T8E], the abundance fitness is reported as 0.387 ± 0.1.
For HTCEKCSNSIANQAVRIQEGRYRHPGCYTCADCGLNLKMRGHFWVGDELYCEKHAR [T8N], the abundance fitness was 0.221 ± 0.13.
Variant HTCEKCSMSIANQAVRIQEGRYRHPGCYTCADCGLNLKMRGHFWVGDELYCEKHAR [T8M] has an abundance fitness of -0.099 ± 0.085.
In the case of HTCEKCSDSIANQAVRIQEGRYRHPGCYTCADCGLNLKMRGHFWVGDELYCEKHAR [T8D], the abundance fitness is reported as 0.232 ± 0.1.
For HTCEKCSSSIANQAVRIQEGRYRHPGCYTCADCGLNLKMRGHFWVGDELYCEKHAR [T8S], the abundance fitness was 0.139 ± 0.086.
In the case of HTCEKCSQSIANQAVRIQEGRYRHPGCYTCADCGLNLKMRGHFWVGDELYCEKHAR [T8Q], the abundance fitness is reported as 0.056 ± 0.074.
